The values below come from the RNAGym collection of RNA variant scans (doi:10.7554/elife.80360).

First the molecules themselves.
B1: HDV Ribozyme (parent)
chain: GGCCGGCAUGGUCCCAGCCUCCUCGCUGGCGCCGGCUGGGCAACAUUCCGAGGGGACCGUCCCCUCGGUAAUGGCGAAUGGGACCCA

The variants in this series derive from B1. Kind of series: self-cleavage, relative activity (ratio to wild type); higher = more cleavage; co-transcriptional.
In the case of GGCCGGCAUGGUCCCAGCCUCCUCGCUGGCGCCGGCUGGGCAACAUUCCGGGGGGACCGUCCCCUCGGUAAUGGCGAAGGGGACCCA [A51G U79G], the self-cleavage was 0.831.

Regarding GGCCGGCAUGGUCCCAGCCUCCUCGCUGGCGCCGGCUGGGCAACAUUCCGGGGGGACCGUCCCCUCGGUAAUGGCGAAAGGGACCCA [A51G U79A], the self-cleavage amounted to 0.675.

Take GGCCGGCAUGGUCCCAGCCUCCUCGCUGGCGCCGGCUGGGCAACAUUCCGUGGGGACCGUCCCCUGGGUAAUGGCGAAUGGGACCCA [A51U C66G]: the self-cleavage was found to be 0.816.

For GGCCGGCAUGGUCCCAGCCUCCUCGCUGGCGCCGGCUGGGCAACAUUCCGUGGGGACCGUCCACUCGGUAAUGGCGAAUGGGACCCA [A51U C63A], the self-cleavage is 0.911.

As to GGCCGGCAUGGUCCCAGCCUCCUCGCUGGCGCCGGCUGGGCAACAUUCCGUGGGGACCGUACCCUCGGUAAUGGCGAAUGGGACCCA [A51U C61A], the self-cleavage is 0.938.

With GGCCGGCAUGGUCCCAGCCUCCUCGCUGGCGCCGGCUGGGCAACAUUCCGUGGGGACCGUUCCCUCGGUAAUGGCGAAUGGGACCCA [A51U C61U], the self-cleavage came out at 0.781.

Regarding GGCCGGCAUGGUCCCAGCCUCCUCGCUGGCGCCGGCUGGGCAACAUUCCGUGGGGACCGUGCCCUCGGUAAUGGCGAAUGGGACCCA [A51U C61G], the self-cleavage worked out at 0.831.

Regarding GGCCGGCAUGGUCCCAGCCUCCUCGCUGGCGCCGGCUGGGCAACAUUCCGUGGGGACUGUCCCCUCGGUAAUGGCGAAUGGGACCCA [A51U C58U], the self-cleavage is 1.17.

Turning to GGCCGGCAUGGUCCCAGCCUCCUCGCUGGCGCCGGCUGGGCAACAUUCCGUGGGGACCGUCCCAUCGGUAAUGGCGAAUGGGACCCA [A51U C64A], the self-cleavage worked out at 0.845.

As to GGCCGGCAUGGUCCCAGCCUCCUCGCUGGCGCCGGCUGGGCAACAUUCCGUGGGGACCGUCCCGUCGGUAAUGGCGAAUGGGACCCA [A51U C64G], the self-cleavage amounted to 0.578.

As to GGCCGGCAUGGUCCCAGCCUCCUCGCUGGCGCCGGCUGGGCAACAUUCCGUGGGGACCGUCCCUUCGGUAAUGGCGAAUGGGACCCA [A51U C64U], the self-cleavage stood at 0.927.

As for GGCCGGCAUGGUCCCAGCCUCCUCGCUGGCGCCGGCUGGGCAACAUUCCGUGGGGACCGUCCCCUCGGUAAUGGCGAAUGGGGCCCA [A51U A83G], the self-cleavage was 0.669.

For the variant GGCCGGCAUGGUCCCAGCCUCCUCGCUGGCGCCGGCUGGGCAACAUUCCGUGGGGACCGUCCCCUCGGUAAUGGCGAAUGGGUCCCA [A51U A83U], the self-cleavage came out at 0.712.

As to GGCCGGCAUGGUCCCAGCCUCCUCGCUGGCGCCGGCUGGGCAACAUUCCGUGGGGACCGUCCCCUCGGUAAUGGCGAAUGGGCCCCA [A51U A83C], the self-cleavage worked out at 0.269.

For GGCCGGCAUGGUCCCAGCCUCCUCGCUGGCGCCGGCUGGGCAACAUUCCGUGGGGAACGUCCCCUCGGUAAUGGCGAAUGGGACCCA [A51U C57A], the self-cleavage stood at 0.814.

Regarding GGCCGGCAUGGUCCCAGCCUCCUCGCUGGCGCCGGCUGGGCAACAUUCCGUGGGGAUCGUCCCCUCGGUAAUGGCGAAUGGGACCCA [A51U C57U], the self-cleavage turned out to be 0.801.

For the variant GGCCGGCAUGGUCCCAGCCUCCUCGCUGGCGCCGGCUGGGCAACAUUCCGUGGGGACCGUCCCCUCGGUAAUGGCGACUGGGACCCA [A51U A78C], the self-cleavage was 0.242.

As for GGCCGGCAUGGUCCCAGCCUCCUCGCUGGCGCCGGCUGGGCAACAUUCCGUGGGGCCCGUCCCCUCGGUAAUGGCGAAUGGGACCCA [A51U A56C], the self-cleavage amounted to 0.851.

For GGCCGGCAUGGUCCCAGCCUCCUCGCUGGCGCCGGCUGGGCAACAUUCCGUGGGGACCGUCCCCUCGGUAUUGGCGAAUGGGACCCA [A51U A71U], the self-cleavage amounted to 1.01.

With GGCCGGCAUGGUCCCAGCCUCCUCGCUGGCGCCGGCUGGGCAACAUUCCGUGGGGACCGUCCCCUCGGUAAUGGCGAAUGGGAGCCA [A51U C84G], the self-cleavage was determined as 0.443.

In the case of GGCCGGCAUGGUCCCAGCCUCCUCGCUGGCGCCGGCUGGGCAACAUUCCGUGGGGACCGUCCCCUCGGUAAUGGCGAAUGGGAUCCA [A51U C84U], the self-cleavage is 0.716.

For the variant GGCCGGCAUGGUCCCAGCCUCCUCGCUGGCGCCGGCUGGGCAACAUUCCGUGGGGACCGUCCCCUCGGUAAUGGCGAAUGGGACCCG [A51U A87G], the self-cleavage stood at 0.965.

For the variant GGCCGGCAUGGUCCCAGCCUCCUCGCUGGCGCCGGCUGGGCAACAUUCCGUGGGGACCGUCCCCUCGGUAAUGGCGAAUGGGACCCC [A51U A87C], the self-cleavage is 0.959.

Consider GGCCGGCAUGGUCCCAGCCUCCUCGCUGGCGCCGGCUGGGCAACAUUCCGUGGGGACCGUCUCCUCGGUAAUGGCGAAUGGGACCCA [A51U C62U], for which the self-cleavage came to 1.09.

For the variant GGCCGGCAUGGUCCCAGCCUCCUCGCUGGCGCCGGCUGGGCAACAUUCCGUGGGGACCGUCGCCUCGGUAAUGGCGAAUGGGACCCA [A51U C62G], the self-cleavage was 0.131.

Regarding GGCCGGCAUGGUCCCAGCCUCCUCGCUGGCGCCGGCUGGGCAACAUUCCGUGGGGACCGUCCCCUCGGUAAUGGCGAAUGGGACCCA [A51U], the self-cleavage was 0.981.

On to GGCCGGCAUGGUCCCAGCCUCCUCGCUGGCGCCGGCUGGGCAACAUUCCGUGGGGACCGUCCCCUCGGUAAUGGCGCAUGGGACCCA [A51U A77C], for which the self-cleavage came out at 0.453.

Regarding GGCCGGCAUGGUCCCAGCCUCCUCGCUGGCGCCGGCUGGGCAACAUUCCGUGGGGACCGUCCCCUCGGUAAUGGCGUAUGGGACCCA [A51U A77U], the self-cleavage worked out at 0.815.

Regarding GGCCGGCAUGGUCCCAGCCUCCUCGCUGGCGCCGGCUGGGCAACAUUCCGUGGGGACCGUCCCCUCGGUAAUGGGGAAUGGGACCCA [A51U C75G], the self-cleavage is 0.344.

Take GGCCGGCAUGGUCCCAGCCUCCUCGCUGGCGCCGGCUGGGCAACAUUCCGUGGGGACCGUCCCCUCGGUAAUGGAGAAUGGGACCCA [A51U C75A]: the self-cleavage came out at 0.123.

As for GGCCGGCAUGGUCCCAGCCUCCUCGCUGGCGCCGGCUGGGCAACAUUCCGUGGGGACCGUCCCCUCGGUAAUGGUGAAUGGGACCCA [A51U C75U], the self-cleavage was determined as 0.177.

On to GGCCGGCAUGGUCCCAGCCUCCUCGCUGGCGCCGGCUGGGCAACAUUCCGGGGGGACCGUCCCCUCGGGAAUGGCGAAUGGGACCCA [A51G U69G], for which the self-cleavage turned out to be 1.09.
